T1: Bzz1-2, P38822
T1 sequence (P38822 568-633, looked up): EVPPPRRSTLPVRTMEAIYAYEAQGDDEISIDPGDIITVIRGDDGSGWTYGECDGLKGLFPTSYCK

T2: Cyk3, Q07533
T2 sequence (Q07533 1-83, looked up): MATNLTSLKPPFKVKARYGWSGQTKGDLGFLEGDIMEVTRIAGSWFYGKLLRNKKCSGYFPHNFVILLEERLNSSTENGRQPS

T3: Pin3, Q06449
T3 sequence (Q06449 53-122, looked up): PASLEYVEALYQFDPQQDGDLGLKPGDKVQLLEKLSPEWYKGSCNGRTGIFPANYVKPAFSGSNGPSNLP

T4: Bud14, P27637
T4 sequence (P27637 247-328, looked up): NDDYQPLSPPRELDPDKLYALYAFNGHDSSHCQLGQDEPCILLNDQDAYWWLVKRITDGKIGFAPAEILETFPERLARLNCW

T5: Sla1-2, P32790
T5 sequence (P32790 60-140, looked up): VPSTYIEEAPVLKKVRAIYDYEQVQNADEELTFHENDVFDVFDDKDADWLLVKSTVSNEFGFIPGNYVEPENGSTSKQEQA

T6: Hof1, Q05080
T6 sequence (Q05080 590-669, looked up): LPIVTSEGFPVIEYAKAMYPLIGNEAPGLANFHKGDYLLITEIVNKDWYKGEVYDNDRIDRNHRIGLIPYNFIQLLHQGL

T7: Myo5, Q04439
T7 sequence (Q04439 1072-1160, looked up): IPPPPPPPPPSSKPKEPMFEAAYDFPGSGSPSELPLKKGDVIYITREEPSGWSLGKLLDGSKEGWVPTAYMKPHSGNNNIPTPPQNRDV

T8: Boi1, P38041
T8 sequence (P38041 1-86, looked up): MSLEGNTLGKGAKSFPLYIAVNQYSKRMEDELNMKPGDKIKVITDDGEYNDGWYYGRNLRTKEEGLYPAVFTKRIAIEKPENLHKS

T9: Fus1, P11710
T9 sequence (P11710 432-512, looked up): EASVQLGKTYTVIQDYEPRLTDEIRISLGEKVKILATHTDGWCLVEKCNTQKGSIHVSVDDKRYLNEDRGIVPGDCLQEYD

T10: Lsb3, P43603
T10 sequence (P43603 385-451, looked up): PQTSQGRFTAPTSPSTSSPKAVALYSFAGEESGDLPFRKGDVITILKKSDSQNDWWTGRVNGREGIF

T11: Lsb4, P32793
T11 sequence (P32793 402-468, looked up): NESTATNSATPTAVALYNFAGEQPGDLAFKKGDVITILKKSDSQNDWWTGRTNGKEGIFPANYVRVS

T12: Boi2, P39969
T12 sequence (P39969 32-116, looked up): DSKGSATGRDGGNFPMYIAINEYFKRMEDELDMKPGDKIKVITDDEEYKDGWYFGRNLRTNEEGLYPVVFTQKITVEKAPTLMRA

T13: Lsb1, P53281
T13 sequence (P53281 45-122, looked up): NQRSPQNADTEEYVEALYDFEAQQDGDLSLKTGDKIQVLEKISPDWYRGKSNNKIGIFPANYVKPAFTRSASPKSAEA

T14: Sla1-3, P32790
T14 sequence (P32790 344-424, looked up): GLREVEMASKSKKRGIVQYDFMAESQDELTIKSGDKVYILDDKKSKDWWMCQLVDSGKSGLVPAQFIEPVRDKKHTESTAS

T15: Bbc1, P47068
T15 sequence (P47068 1-78, looked up): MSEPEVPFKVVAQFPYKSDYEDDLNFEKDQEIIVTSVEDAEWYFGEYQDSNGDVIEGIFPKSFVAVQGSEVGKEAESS

T16: Cdc25, P04821
T16 sequence (P04821 50-136, looked up): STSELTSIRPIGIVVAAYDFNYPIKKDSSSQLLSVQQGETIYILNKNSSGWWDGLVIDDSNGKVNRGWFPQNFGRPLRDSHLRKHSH

T17: Hse1, P38753
T17 sequence (P38753 208-285, looked up): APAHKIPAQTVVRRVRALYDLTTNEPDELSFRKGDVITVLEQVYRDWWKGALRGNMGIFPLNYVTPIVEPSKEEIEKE

T18: Nbp2, Q12163
T18 sequence (Q12163 103-180, looked up): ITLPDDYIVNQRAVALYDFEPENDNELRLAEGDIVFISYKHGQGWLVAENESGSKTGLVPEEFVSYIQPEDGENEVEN

T19: Pex13, P80667
T19 sequence (P80667 295-386, looked up): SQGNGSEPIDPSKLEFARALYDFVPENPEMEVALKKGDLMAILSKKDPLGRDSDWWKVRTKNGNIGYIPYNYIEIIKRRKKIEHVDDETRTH

T20: Abp1, P15891
T20 sequence (P15891 535-592, looked up): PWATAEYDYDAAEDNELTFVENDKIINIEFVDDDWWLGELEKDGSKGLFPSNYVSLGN

T21: Bzz1-1, P38822
T21 sequence (P38822 478-572, looked up): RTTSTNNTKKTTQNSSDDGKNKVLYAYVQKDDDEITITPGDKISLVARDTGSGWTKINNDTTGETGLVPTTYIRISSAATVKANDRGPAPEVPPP


Columns and labels:
Assay in all cases: SPOT array
[1] = target: T1, Bzz1-2, P38822; conditions: median of control spots 4538
[2] = target: T2, Cyk3, Q07533; conditions: median of control spots 1451
[3] = target: T3, Pin3, Q06449; conditions: median of control spots 2171
[4] = target: T4, Bud14, P27637; conditions: median of control spots 956
[5] = target: Sho1, P40073; conditions: median of control spots 1148
Sho1, P40073, sequence (P40073 287-367): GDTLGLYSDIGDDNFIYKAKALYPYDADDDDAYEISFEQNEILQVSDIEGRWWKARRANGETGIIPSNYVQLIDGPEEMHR

[6] = target: T5, Sla1-2, P32790; conditions: median of control spots 712
[7] = target: T6, Hof1, Q05080; conditions: median of control spots 4086
[8] = target: T7, Myo5, Q04439; conditions: median of control spots 471
[9] = target: T8, Boi1, P38041; conditions: median of control spots 1162
[10] = target: T9, Fus1, P11710; conditions: median of control spots 1200
[11] = target: T10, Lsb3, P43603; conditions: median of control spots 406
[12] = target: T11, Lsb4, P32793; conditions: median of control spots 397
[13] = target: Bem1-2, P29366; conditions: median of control spots 4347
Bem1-2, P29366, sequence (P29366 139-227): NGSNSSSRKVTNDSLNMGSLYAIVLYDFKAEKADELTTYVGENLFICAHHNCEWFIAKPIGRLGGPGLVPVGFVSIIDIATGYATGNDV

[14] = target: T12, Boi2, P39969; conditions: median of control spots 1161
[15] = target: T13, Lsb1, P53281; conditions: median of control spots 388
[16] = target: GST; conditions: median of control spots 978
[17] = target: T14, Sla1-3, P32790; conditions: median of control spots 5475
[18] = target: T15, Bbc1, P47068; conditions: median of control spots 796
[19] = target: T16, Cdc25, P04821; conditions: median of control spots 969
[20] = target: T17, Hse1, P38753; conditions: median of control spots 1727
[21] = target: T18, Nbp2, Q12163; conditions: median of control spots 357
[22] = target: Rvs167, P39743; conditions: median of control spots 2707
Rvs167, P39743, sequence (P39743 419-482): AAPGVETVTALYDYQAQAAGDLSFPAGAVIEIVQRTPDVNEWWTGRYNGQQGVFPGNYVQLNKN

[23] = target: T19, Pex13, P80667; conditions: median of control spots 1341
[24] = target: Bem1-1, P29366; conditions: median of control spots 4282
Bem1-1, P29366, sequence (P29366 55-141): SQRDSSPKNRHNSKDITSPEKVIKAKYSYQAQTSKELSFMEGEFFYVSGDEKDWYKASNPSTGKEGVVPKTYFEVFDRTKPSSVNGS

[25] = target: T20, Abp1, P15891; conditions: median of control spots 935
[26] = target: Myo3, P36006; conditions: median of control spots 468
[27] = target: T21, Bzz1-1, P38822; conditions: median of control spots 4446

SPOT intensity [1] | SPOT intensity [2] | SPOT intensity [3] | SPOT intensity [4] | SPOT intensity [5] | SPOT intensity [6] | SPOT intensity [7] | SPOT intensity [8] | SPOT intensity [9] | SPOT intensity [10] | SPOT intensity [11] | SPOT intensity [12] | SPOT intensity [13] | SPOT intensity [14] | SPOT intensity [15] | SPOT intensity [16] | SPOT intensity [17] | SPOT intensity [18] | SPOT intensity [19] | SPOT intensity [20] | Binder | other results
5 | 5 | 7 | 64 | 123 | 0 | 17 | 0 | 15 | 136 | 5 | 10 | 8 | 4 | 114 | 1 | 117 | 395 | 131 | 19 | HRRRRVFSIPSLKSI | SPOT intensity [21]: 176; SPOT intensity [22]: 3; SPOT intensity [23]: 4; SPOT intensity [24]: 1; SPOT intensity [25]: 158; SPOT intensity [26]: 6; SPOT intensity [27]: 3
5 | 5 | 1 | 24 | 270 | 0 | 4 | 1 | 9 | 43 | 8 | 6 | 5 | 0 | 0 | 1 | 25 | 515 | 28 | 16 | RRRRRPHRIERPLSN | SPOT intensity [21]: 74; SPOT intensity [22]: 4; SPOT intensity [23]: 2; SPOT intensity [24]: 1; SPOT intensity [25]: 133; SPOT intensity [26]: 7; SPOT intensity [27]: 2
6 | 3 | 0 | 34 | 98 | 2 | 4 | 0 | 9 | 64 | 0 | 1 | 4 | 2 | 0 | 2 | 34 | 175 | 32 | 12 | KRKRFNLLLPKPYLT | SPOT intensity [21]: 53; SPOT intensity [22]: 3; SPOT intensity [23]: 3; SPOT intensity [24]: 3; SPOT intensity [25]: 72; SPOT intensity [26]: 0; SPOT intensity [27]: 3
21 | 1 | 8 | 22 | 295 | 1 | 13 | 2 | 5 | 44 | 14 | 5 | 5 | 0 | 26 | 3 | 44 | 175 | 52 | 55 | RSLRKRPTSPSISGS | SPOT intensity [21]: 198; SPOT intensity [22]: 2; SPOT intensity [23]: 5; SPOT intensity [24]: 0; SPOT intensity [25]: 224; SPOT intensity [26]: 9; SPOT intensity [27]: 0
